Measurements from publication PMC11487180.

Experiments:
PAK6 (Homo sapiens) = PAK6 (Homo sapiens) (UniProt Q9NQU5); settings: cited from earlier work
[1] = molecular target: MBP-LRRK2-Roc-COR (wild type) (human) (UniProt Q5S007); assay: MST; NT-647-NHS labelled MBP-LRRK2-Roc-COR at 100 nM; unlabelled GST, GST-CRIB-PAK5 or GST-CRIB-PAK6 titrated; guanine nucleotides at 0.5 mM; Monolith NT.115, IR laser power 80%; analysed by PALMIST
[2] = molecular target: 3xFlag tagged PAK6, full-length, purified from HEK293 cells (human) (UniProt Q9NQU5); assay: MST; NT-647-NHS labelled PAK6 full-length at 100 nM; unlabelled MBP-LRRK2-Roc-COR titrated (R1441C 3.4 nM to 110 µM, Y1699C 3.6 nM to 118 µM); guanine nucleotides at 0.5 mM; Monolith NT.115, IR laser power 80%; analysed by PALMIST
Chain of 3xFlag tagged PAK6, full-length, purified from HEK293 cells (human) (Q9NQU5 whole entry): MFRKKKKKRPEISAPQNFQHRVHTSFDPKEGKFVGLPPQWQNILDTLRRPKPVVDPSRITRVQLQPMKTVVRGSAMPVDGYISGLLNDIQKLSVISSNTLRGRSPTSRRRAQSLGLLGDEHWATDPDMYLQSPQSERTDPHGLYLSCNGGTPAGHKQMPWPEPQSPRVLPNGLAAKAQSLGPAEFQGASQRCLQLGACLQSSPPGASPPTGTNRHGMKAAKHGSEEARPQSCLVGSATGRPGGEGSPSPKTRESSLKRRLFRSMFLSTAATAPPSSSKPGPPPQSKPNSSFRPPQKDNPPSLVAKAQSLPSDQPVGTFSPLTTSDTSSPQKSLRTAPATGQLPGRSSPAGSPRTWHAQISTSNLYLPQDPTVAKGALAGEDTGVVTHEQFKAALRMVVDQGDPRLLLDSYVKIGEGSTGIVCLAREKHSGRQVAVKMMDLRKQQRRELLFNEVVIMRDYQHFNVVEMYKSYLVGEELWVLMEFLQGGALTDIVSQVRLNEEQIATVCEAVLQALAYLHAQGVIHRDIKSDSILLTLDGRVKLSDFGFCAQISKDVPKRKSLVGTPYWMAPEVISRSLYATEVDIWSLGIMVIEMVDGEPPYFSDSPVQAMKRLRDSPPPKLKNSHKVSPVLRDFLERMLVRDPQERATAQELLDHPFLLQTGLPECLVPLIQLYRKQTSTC

Chain of MBP-LRRK2-Roc-COR (wild type) (human) (Q5S007 whole entry): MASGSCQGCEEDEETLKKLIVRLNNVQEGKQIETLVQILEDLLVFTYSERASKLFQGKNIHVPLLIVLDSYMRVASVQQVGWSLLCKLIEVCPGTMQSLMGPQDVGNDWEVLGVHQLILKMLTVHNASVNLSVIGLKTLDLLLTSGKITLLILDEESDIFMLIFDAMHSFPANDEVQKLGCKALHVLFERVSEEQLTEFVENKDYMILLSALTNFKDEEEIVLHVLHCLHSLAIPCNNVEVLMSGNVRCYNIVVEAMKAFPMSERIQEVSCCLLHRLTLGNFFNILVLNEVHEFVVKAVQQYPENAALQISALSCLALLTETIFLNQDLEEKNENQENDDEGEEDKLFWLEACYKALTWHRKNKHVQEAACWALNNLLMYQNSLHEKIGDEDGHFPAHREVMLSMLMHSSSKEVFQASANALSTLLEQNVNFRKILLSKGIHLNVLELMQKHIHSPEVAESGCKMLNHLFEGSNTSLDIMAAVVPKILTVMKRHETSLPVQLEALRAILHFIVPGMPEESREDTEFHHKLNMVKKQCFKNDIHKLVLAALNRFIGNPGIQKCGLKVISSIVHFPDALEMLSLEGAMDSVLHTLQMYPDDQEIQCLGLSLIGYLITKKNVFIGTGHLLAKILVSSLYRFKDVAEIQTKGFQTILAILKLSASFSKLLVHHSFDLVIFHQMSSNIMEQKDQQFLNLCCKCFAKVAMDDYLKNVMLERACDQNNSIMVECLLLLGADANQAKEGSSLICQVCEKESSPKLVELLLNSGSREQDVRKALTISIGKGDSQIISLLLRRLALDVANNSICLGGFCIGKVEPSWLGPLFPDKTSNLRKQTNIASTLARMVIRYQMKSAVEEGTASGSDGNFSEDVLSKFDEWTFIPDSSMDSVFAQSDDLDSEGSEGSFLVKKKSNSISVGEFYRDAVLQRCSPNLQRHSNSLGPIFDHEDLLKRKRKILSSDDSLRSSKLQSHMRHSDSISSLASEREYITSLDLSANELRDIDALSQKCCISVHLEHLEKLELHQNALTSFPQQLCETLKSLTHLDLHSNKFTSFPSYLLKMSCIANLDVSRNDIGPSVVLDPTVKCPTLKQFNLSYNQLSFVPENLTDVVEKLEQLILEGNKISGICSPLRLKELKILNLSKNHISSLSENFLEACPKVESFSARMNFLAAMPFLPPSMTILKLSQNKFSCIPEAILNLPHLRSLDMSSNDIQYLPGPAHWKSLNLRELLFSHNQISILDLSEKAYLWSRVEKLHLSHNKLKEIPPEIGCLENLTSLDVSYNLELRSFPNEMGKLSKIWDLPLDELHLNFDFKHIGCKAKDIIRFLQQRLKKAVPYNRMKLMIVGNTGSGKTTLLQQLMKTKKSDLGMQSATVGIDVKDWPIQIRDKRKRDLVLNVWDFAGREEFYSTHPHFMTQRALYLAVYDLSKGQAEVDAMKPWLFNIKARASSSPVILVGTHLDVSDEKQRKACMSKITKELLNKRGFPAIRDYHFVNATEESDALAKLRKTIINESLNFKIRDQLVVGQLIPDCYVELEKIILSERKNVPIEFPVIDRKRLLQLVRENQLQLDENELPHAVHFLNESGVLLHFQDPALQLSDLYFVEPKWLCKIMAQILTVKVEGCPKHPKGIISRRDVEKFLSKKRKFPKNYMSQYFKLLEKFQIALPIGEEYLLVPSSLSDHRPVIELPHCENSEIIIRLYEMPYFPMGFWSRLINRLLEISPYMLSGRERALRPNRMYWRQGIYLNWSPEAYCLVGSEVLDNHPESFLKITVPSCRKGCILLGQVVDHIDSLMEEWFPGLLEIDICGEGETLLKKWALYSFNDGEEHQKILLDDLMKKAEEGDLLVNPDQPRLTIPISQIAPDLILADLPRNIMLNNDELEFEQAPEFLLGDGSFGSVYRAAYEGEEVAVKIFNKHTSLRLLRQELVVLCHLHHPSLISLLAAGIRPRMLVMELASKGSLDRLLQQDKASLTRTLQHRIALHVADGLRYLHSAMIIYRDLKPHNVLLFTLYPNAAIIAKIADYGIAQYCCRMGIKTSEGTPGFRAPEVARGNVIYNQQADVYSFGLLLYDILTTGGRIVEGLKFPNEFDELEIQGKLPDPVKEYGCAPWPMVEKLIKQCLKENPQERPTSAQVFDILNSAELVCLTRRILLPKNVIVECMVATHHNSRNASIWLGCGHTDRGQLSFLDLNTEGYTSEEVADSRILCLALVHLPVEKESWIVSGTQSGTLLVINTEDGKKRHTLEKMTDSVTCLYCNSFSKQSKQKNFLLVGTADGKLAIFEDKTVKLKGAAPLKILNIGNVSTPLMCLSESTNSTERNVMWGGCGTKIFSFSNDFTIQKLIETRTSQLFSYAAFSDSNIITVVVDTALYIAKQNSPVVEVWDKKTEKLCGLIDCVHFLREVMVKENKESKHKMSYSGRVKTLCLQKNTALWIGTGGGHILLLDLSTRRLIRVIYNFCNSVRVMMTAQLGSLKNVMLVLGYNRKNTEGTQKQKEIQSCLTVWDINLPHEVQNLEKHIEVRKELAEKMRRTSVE
Chain of PAK6 (Homo sapiens) (Q9NQU5 whole entry): as the sequence (Q9NQU5 whole entry) above
Chain of GST-CRIB(PAK5) (Q9P286 10-44): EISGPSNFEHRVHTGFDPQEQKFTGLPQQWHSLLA
Chain of LRRK2 Roc-COR (Q5S007 1328-1840): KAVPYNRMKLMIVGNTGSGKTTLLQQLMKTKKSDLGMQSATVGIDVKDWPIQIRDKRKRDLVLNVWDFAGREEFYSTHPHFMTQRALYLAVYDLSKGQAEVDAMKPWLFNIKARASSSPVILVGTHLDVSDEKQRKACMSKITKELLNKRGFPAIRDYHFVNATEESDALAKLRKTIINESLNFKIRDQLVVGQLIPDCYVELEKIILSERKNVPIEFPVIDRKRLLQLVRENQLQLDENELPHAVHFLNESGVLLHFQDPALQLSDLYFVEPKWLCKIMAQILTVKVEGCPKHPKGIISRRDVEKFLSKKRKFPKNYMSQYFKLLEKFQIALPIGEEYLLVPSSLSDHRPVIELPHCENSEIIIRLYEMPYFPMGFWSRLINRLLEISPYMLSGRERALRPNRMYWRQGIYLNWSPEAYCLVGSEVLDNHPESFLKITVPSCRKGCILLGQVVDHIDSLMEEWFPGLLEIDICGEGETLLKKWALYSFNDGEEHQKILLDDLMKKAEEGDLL
Chain of GST-CRIB(PAK6) (Q9NQU5 11-45): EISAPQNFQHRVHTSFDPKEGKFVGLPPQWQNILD

Substance | Kd [1] | Kd [2] | also measured
LRRK2 Roc-COR (from UniProt Q5S007) |  |  | Kd (PAK6 (Homo sapiens)): 10 µM
GST-CRIB(PAK6) (from UniProt Q9NQU5 11-45) (domain or fragment) | 12 µM |  | 
MBP-LRRK2-Roc-COR R1441C (from UniProt Q5S007 1-2527) (domain or fragment) |  | 51.8 µM | 
GST-CRIB(PAK5) (from UniProt Q9P286 10-44) (domain or fragment) | 112 µM |  | 
MBP-LRRK2-Roc-COR Y1699C (from UniProt Q5S007 1-2527) (domain or fragment) |  | 38.2 µM | 
